Measurements published in paper PMC3435109 (2012).

Target: PKA catalytic subunit (Mus musculus, UniProt P05132)
Experiment: SPR

Kd [nM]	Binder
0.6	RIIβ 102-265 (protein) PVINRFTRRASVCAEAYNPDEEEDDAESRIIHPKTDDQRNRLQEACKDILLFKNLDPEQMSQVLDAMFEKLVKEGEHVIDQGDDGDNFYVIDRGTFDIYVKCDGVGRCVGNYDNRGSFGELALMYNTPRAATITATSPGALWGLDRVTFRRIIVKNNAKKRKMY
11.3	RIIβ 108-268 (protein) TRRASVCAEAYNPDEEEDDAESRIIHPKTDDQRNRLQEACKDILLFKNLDPEQMSQVLDAMFEKLVKEGEHVIDQGDDGDNFYVIDRGTFDIYVKCDGVGRCVGNYDNRGSFGELALMYNTPRAATITATSPGALWGLDRVTFRRIIVKNNAKKRKMYESF
